Measured values reported in article PMC5427846 (Scientific Reports, 2017).

Biological target: T1, SecY without pBpa insertion (E. coli, UniProt P0AGA2 1-443)
T1 sequence (looked up): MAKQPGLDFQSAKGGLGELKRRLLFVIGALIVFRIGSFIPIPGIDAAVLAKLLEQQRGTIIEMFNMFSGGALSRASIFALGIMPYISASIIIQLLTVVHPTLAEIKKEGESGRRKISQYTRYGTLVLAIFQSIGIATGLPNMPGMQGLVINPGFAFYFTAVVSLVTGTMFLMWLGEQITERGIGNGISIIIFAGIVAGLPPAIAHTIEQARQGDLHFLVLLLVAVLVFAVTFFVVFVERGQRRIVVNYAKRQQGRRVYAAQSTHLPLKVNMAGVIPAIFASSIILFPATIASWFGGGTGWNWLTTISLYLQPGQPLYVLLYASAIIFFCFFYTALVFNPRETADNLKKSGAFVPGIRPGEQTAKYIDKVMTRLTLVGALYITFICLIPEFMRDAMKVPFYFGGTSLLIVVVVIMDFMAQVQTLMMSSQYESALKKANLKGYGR
Assay: cell-based or functional assay

anion to cation permeability ratio r (PCl/PK) of the FtsQ-RNC-YidC-SecYEG complex: 5.1
B1: YidC (natural protein, UniProt P25714 1-548, looked up)
chain: MDSQRNLLVIALLFVSFMIWQAWEQDKNPQPQAQQTTQTTTTAAGSAADQGVPASGQGKLISVKTDVLDLTINTRGGDVEQALLPAYPKELNSTQPFQLLETSPQFIYQAQSGLTGRDGPDNPANGPRPLYNVEKDAYVLAEGQNELQVPMTYTDAAGNTFTKTFVLKRGDYAVNVNYNVQNAGEKPLEISSFGQLKQSITLPPHLDTGSSNFALHTFRGAAYSTPDEKYEKYKFDTIADNENLNISSKGGWVAMLQQYFATAWIPHNDGTNNFYTANLGNGIAAIGYKSQPVLVQPGQTGAMNSTLWVGPEIQDKMAAVAPHLDLTVDYGWLWFISQPLFKLLKWIHSFVGNWGFSIIIITFIVRGIMYPLTKAQYTSMAKMRMLQPKIQAMRERLGDDKQRISQEMMALYKAEKVNPLGGCFPLLIQMPIFLALYYMLMGSVELRQAPFALWIHDLSAQDPYYILPILMGVTMFFIQKMSPTTVTDPMQQKIMTFMPVIFTVFFLWFPSGLVLYYIVSNLVTIIQQQLIYRGLEKRGLHSREKKKS
